The record followed here is patent publication US20140302028A1.

The target in assay [1] is recombinant human FcRn (Sino Biological Inc.) (human) (UniProt P55899). The experiment in a line: SPR (Biacore T100), human FcRn immobilised, pH 6, two-state model. (In general: SPR reads the build-up and loss of mass on a sensor chip optically.)
For assay [2], the target named is recombinant mouse FcRn (R&D Systems) (mouse) (UniProt Q61559). Put plainly: SPR (Biacore T100), mouse FcRn immobilised, pH 6, two-state model.
Assay [3] addresses recombinant human FcRn (Sino Biological Inc.) (human) (UniProt P55899). The experiment in a line: SPR (Biacore T100), human FcRn immobilised, pH 6, two-state model, complex formation.
Assay [4] concerns the target recombinant mouse FcRn (R&D Systems) (mouse) (UniProt Q61559). Put plainly: SPR (Biacore T100), mouse FcRn immobilised, pH 6, two-state model, complex formation.
Assay [5] addresses recombinant human FcRn (Sino Biological Inc.) (human) (UniProt P55899). The experiment in a line: SPR (Biacore T100), human FcRn immobilised, pH 6, two-state model, complex stabilization.
Assay [6] concerns the target recombinant mouse FcRn (R&D Systems) (mouse) (UniProt Q61559). The experiment in a line: SPR (Biacore T100), mouse FcRn immobilised, pH 6, two-state model, complex stabilization.

Sequence of UniProt P55899 (P55899 24-297 limits assumed, chain 1 of 2): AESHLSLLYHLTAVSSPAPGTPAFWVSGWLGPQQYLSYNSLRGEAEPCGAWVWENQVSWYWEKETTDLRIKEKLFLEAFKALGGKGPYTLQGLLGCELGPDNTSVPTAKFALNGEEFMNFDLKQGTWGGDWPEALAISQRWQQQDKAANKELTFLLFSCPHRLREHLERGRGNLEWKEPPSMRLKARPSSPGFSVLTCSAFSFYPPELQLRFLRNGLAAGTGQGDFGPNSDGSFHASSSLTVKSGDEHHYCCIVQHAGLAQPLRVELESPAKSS
Sequence of UniProt P55899 (chain, as listed by the source limits assumed, chain 2 of 2): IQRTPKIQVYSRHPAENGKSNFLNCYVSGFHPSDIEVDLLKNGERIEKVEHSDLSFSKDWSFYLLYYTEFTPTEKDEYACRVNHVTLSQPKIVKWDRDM
Sequence of UniProt Q61559 (Q61559 22-297 limits assumed, chain 1 of 2): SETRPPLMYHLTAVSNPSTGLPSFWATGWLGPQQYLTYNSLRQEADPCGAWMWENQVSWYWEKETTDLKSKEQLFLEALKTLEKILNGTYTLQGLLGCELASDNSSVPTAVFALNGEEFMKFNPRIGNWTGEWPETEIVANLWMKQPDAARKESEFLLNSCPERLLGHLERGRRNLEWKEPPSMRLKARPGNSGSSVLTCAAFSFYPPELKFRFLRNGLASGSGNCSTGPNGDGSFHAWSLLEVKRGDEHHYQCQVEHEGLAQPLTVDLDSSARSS
Sequence of UniProt Q61559 (chain, as listed by the source limits assumed, chain 2 of 2): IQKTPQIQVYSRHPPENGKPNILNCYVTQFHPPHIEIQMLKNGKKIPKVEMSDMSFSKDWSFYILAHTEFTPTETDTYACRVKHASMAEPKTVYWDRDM

For orientation: Kd means the free concentration of one partner at which half of the binding sites on the other are occupied at equilibrium, for simple one-to-one binding. Broadly, the koff is the rate constant with which the complex falls apart. As usually defined, the kon is the rate constant with which the complex forms. Turning to HUMIRA ® (antibody), the Kd in assay [1] was 34 nM; in assay [2], 6.66 nM. For the same substance, the koff turned out to be 0.313 s⁻¹ in assay [3] and 0.0153 s⁻¹ in assay [4]. In addition, the results for the kon in assay [3] and in assay [4] were 5.99e+06 M⁻¹ s⁻¹ and 159000 M⁻¹ s⁻¹, respectively. Moreover, the kd (Complex Stabilization) in assay [5] worked out at 0.00155 s⁻¹; in assay [6], 0.000107 s⁻¹.
